Reference: patent publication US20190177366

Assays:
Compound 118 = tested on: T1, Compound 118
T1 sequence: WNLVXIGLTR

Compound 26 = tested on: T2, Compound 26
T2 sequence: SGCFIPWNLQRIGLLC

Compound 29 = tested on: T3, Compound 29
T3 sequence: SGCFIPWNLQRIGLLC

Pep2-8-ctrl = tested on: T4, Pep2-8-ctrl
T4 sequence: TVATSAEEYLLWV

Pep2-8 = tested on: T5, Pep2-8
T5 sequence: TVFTSWEEYLDWV

PCSK9-R167A:R215A:R218A
FXIa cleavage of the P′ helix (immunoblot) (Compound 118): resulted in a higher degree of P′ helix cleavage by FXIa as compared to the peptide Compound 112 | FXIa cleavage of the P′ helix (immunoblot) (Compound 26): both groove binding peptides accelerated the cleavage reaction, leading to almost complete cleavage of the P′ helix | FXIa cleavage of the P′ helix (immunoblot) (Compound 29): both groove binding peptides accelerated the cleavage reaction, leading to almost complete cleavage of the P′ helix | FXIa cleavage of the P′ helix (immunoblot) (Pep2-8-ctrl): The control peptide did not inhibit cleavage and gave similar results as the buffer control | FXIa cleavage of the P′ helix (immunoblot) (Pep2-8): both reagents largely prevented cleavage of the P′ helix by FXIa
